The RNAGym collection of RNA variant scans (doi:10.1073/pnas.2313332121)
Variants at the floor of the assay were thinned out.

B1: TPR 5TU (parent)
chain: GGAUCUUCUCGAUCUAACAAAAAAGACAAAUCUGCCACAAAGCUUGAGAGCAUCUUCGGAUGCAGAGGCGGCAGCCUUCGGUGGCGCGAUAGCGCCAACGUUCUCAACUAUGACACGCAAAACGCGUGCUCCGUUGAAUGGAGUUUAUCAUG

Variants of: B1
Test: polymerase ribozyme fitness, log enrichment relative to wild type (log ratio); higher = more active; in vitro selection for triplet polymerase activity
In short: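 Libraries of mutants in each subunit of a heterodimeric triplet polymerase ribozyme were generated by PCR and transcribed. In triplicate, each went through one in vitro selection round: annealing with biotinylated primer, partner subunit and triplets; frozen incubation at −7 °C; gel excision of extended constructs; streptavidin-bead capture; RT-PCR. Fitness, taken from Illumina sequencing of input and output libraries, is the logarithm of a genotype's enrichment over wild-type enrichment, averaged across replicates with inverse-variance weights. The logarithm is base 2, and genotypes needed ≥10 input reads and ≥1 read per output to be kept.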

Row | Variant | polymerase ribozyme fitness (log ratio)
1 | A29C A52G G83C A106C | ≤ -4.2
2 | A29G U55A C95U U101C U109A G133A | ≤ -4.2
3 | A28C C69U | ≤ -4.2
4 | A28U C87G C118G | ≤ -4.2
5 | A28U G84U | ≤ -4.2
6 | A28C C51U C57A A73U C87G U101G A121U | ≤ -4.2
7 | A28U G42C A52C G100C G117C | ≤ -4.2
8 | A28G G140A | -4.13
9 | A29C A30U A97U C103U C116G G133A | ≤ -4.2
10 | A28U A52G C85U G88A C95G U109G | ≤ -4.2
11 | A29C G59U G92C C96A A107G C125U U127G | ≤ -4.2
12 | A28U U44G U82G C87U C114U G133A U146G | ≤ -4.2
13 | A28C U78G C96G U148G | ≤ -4.2
14 | A28U A66C G83U A122G | -4.16
15 | A28G A138C C149A | ≤ -4.2
16 | A28C C54G C79G C85G U145A | ≤ -4.2
17 | A28G A91C G126A | ≤ -4.2
18 | A29C A39U A52C U101G C125G G126A G143U U146C | ≤ -4.2
19 | A29C A41U G83A A138U | ≤ -4.2
20 | A28U A37C C87A G117A G140C | ≤ -4.2
21 | A28G A52U G84A C103A | ≤ -4.2
22 | A28U G62A G65A G94A G136A | ≤ -4.2
23 | A28U U61C G68A G86A A89U G117C | ≤ -4.2
24 | A28U G50U G59A | ≤ -4.2

Row | Variant | polymerase ribozyme fitness (log ratio)
25 | A28U U53A G81C C95G A107U U139A | ≤ -4.2
26 | A29U A41U C75U C123U G143U U145G | ≤ -4.2
27 | A28U A73G | ≤ -4.2
28 | A29G C131U | ≤ -4.2
29 | A29G G34A A49U G59U C76U C108A A119G | ≤ -4.2
30 | A28G G42C C43A U55A | ≤ -4.2
31 | A28U A41C G88C | ≤ -4.2
32 | A29G A30U C85A A107U C118G | ≤ -4.2
33 | A28G C36U | ≤ -4.2
34 | A28U C72U | ≤ -4.2
35 | A28C A30U G86A | ≤ -4.2
36 | A28U A29G C75G G81U C85G A106C C129A | ≤ -4.2
37 | A28C U55A C75G | ≤ -4.2
38 | A28U C35G C54A C79A G80C A89C G94A | ≤ -4.2
39 | A29C A49U A91U C118G C149A | ≤ -4.2
40 | A28C C93U | -4.16
41 | A29G G70A A120U G143A A150C | ≤ -4.2
42 | A28C G80C U82G G88C U130C | ≤ -4.2
43 | A28U C54U C63U G71U C108U C114U A137U U139G A150G | ≤ -4.2
44 | A29U A39G C57G A66C C85G A91U | ≤ -4.2
45 | A28G A41C C96A U145G | ≤ -4.2
46 | A28U C32U A39U G58U C87U | ≤ -4.2
47 | A29G C93G A115U C116G C149G | ≤ -4.2
48 | A28C A30G C93U C103U | -4.06

Row | Variant | polymerase ribozyme fitness (log ratio)
49 | A28U A37U A73G G92U A106G C118G | ≤ -4.2
50 | A28G G34U G80A U102A C108G | ≤ -4.2
51 | A28U G92A G140C | -3.61
52 | A28G G50C A122G U145C U148A | ≤ -4.2
53 | A28U A30C U53G A64U C118U | ≤ -4.2
54 | A28C U61A U134A U148C | ≤ -4.2
55 | A29C U33G A40U G80U G94U U102C G143A U151A | -3.89
56 | A28U U77C | ≤ -4.2
57 | A28G C79G C85U A115C U151A | ≤ -4.2
58 | A29G C57A G58U C95U C125G | ≤ -4.2
59 | A28G A60C C76G | ≤ -4.2
60 | A29U A39U U55A C79A C93G | ≤ -4.2
61 | A29U A73G C93A G128U G140U | ≤ -4.2
62 | A29C U44A A52U G58A C118A | ≤ -4.2
63 | A28U A37C C79U C87U | -3.89
64 | A29G C35U U145C | -3.89
65 | A28C A30U A60C C75A C76U C93A C95G | ≤ -4.2
66 | A28C C54A C95A C105U U145A | ≤ -4.2
67 | A28G C75G G88A U139G G141C | -3.97
68 | A29G A47C U55G | ≤ -4.2
69 | C27U U139A | ≤ -4.2
70 | A28U A73U A91G C125A A137C | ≤ -4.2
71 | A28U G50A U55C U139G | ≤ -4.2
72 | A28C U31G C125G | ≤ -4.2

Row | Variant | polymerase ribozyme fitness (log ratio)
73 | A28G A52C U55A G67C C149G | ≤ -4.2
74 | A29G G86U G143A | ≤ -4.2
75 | A28U A41C C75U G81A C103G C149G | ≤ -4.2
76 | A29G A41C | -3.63
77 | A28G C93U U127C | ≤ -4.2
78 | A29C C57A G68A G88C C114U G117C A122G | ≤ -4.2
79 | A28U A41C C96A G141C | -4.02
80 | A28G U55G G58C G88C G140U | ≤ -4.2
81 | A29C A30C G65A C93U G136A | ≤ -4.2
82 | A29C U44G U55A G68A G71U G80A C93A A98U A138C | ≤ -4.2
83 | A29C U33C U44A G80U C85U C93U G136U | ≤ -4.2
84 | A28C G46C G84A C85U | ≤ -4.2
85 | A28C A49C C96U G133A U134G | -4.14
86 | A28U U55A | -4.13
87 | A29C U53A | ≤ -4.2
88 | A29C U53A A73C G84C C103G A107U U134G | ≤ -4.2
89 | A29G U33C G141A U145A | ≤ -4.2
90 | A29C A40U A41C G84A G141A | ≤ -4.2
91 | A29G C36A A47C G50C C76A C85U C118A A121U U135G | ≤ -4.2
92 | A29C G58U | -4.16
93 | A29C G58C | -3.97
94 | A28U A47C U130G | ≤ -4.2
95 | A28C C43U C76G A110G A138U | ≤ -4.2
96 | A29C G94A A110U G124A A147U | ≤ -4.2

Row | Variant | polymerase ribozyme fitness (log ratio)
97 | A29G U31A C96U C114U G140C | ≤ -4.2
98 | A29C C36A U55A U61G C87A | ≤ -4.2
99 | A28C A52U C87U | ≤ -4.2
100 | A28C A41C C95A G128A G140C G143A | ≤ -4.2
101 | A29C U33G G34U G50C G84C G100C C108A A113U G141U | ≤ -4.2
102 | A29C C51G C57G G92C A107C A110C G124A U145A U151G | ≤ -4.2
103 | A28C G59U A91G U135C | ≤ -4.2
104 | A29G G58C A60C G71A C129G | ≤ -4.2
105 | A29U A41C U61A G67U G86U G92A C93A G133C | ≤ -4.2
106 | A29G A30C G86U A137U | ≤ -4.2
107 | A29C C63U G65U U144G | ≤ -4.2
108 | A29G A37U G94C G141U | ≤ -4.2
109 | A28U A52C A97U A137U U139C | ≤ -4.2
110 | A28U G58U C79G G92U | ≤ -4.2
111 | A28U C35U | -4.12
112 | A28G A30U C32A C85A C95U A115U | ≤ -4.2
113 | A28G G50C G81C C95G C96U A98C A113U G143U | ≤ -4.2
114 | A28U C32U G42C G84A A89G G92A C131A U148A | ≤ -4.2
115 | A28C C32U A52U U53G C93A G112C G143U | ≤ -4.2
116 | A29G C43U A66C C96U C103A | ≤ -4.2
117 | A28G U55A | -2.49
118 | A29C G58A G83A C118U | ≤ -4.2
119 | A28U G50C C76U C85U C103A C118U U144G | ≤ -4.2
120 | A28C A30C A41U C57U A107C | ≤ -4.2

Row | Variant | polymerase ribozyme fitness (log ratio)
121 | C27U U61G A64U C96U | ≤ -4.2
122 | A28G C116U | -3.63
123 | A29G G42A G81A C85U | -4.09
124 | A29G A47C G70A C85G A89U A138C A142U | ≤ -4.2
125 | A28U A47C | -3.9
126 | A28U A41U C57A G70C G88U A89U C95A | ≤ -4.2
127 | A28U U90G C99U G141U U151G | ≤ -4.2
128 | A28G G83C | -4.1
129 | A29C G74C | ≤ -4.2
130 | A29G | -1.81
131 | A29C | -3.73
132 | A29U | -3.4
133 | A28U C93U C118U A121G | ≤ -4.2
134 | A28C C51A C76G G83C A110U U127G | ≤ -4.2
135 | A28C C85G A106C A113C | ≤ -4.2
136 | A29C G65A C108U C116G C125A U146G A150G | ≤ -4.2
137 | A28G C54U C93A U127A | ≤ -4.2
138 | A28C A52U U55G C87G C125U G152A | ≤ -4.2
139 | A28G C43U A113U G117A A138G | ≤ -4.2
140 | A29G C93A A122G G124A | ≤ -4.2
141 | A29C A41C G62A G84A U90A C118G | ≤ -4.2
142 | A28C G46C G84A C85U C96U C116U C149U | ≤ -4.2
143 | A29C C54U C85U | ≤ -4.2
144 | A29U A52U U53A G80A C87A G128U U146C | ≤ -4.2

Row | Variant | polymerase ribozyme fitness (log ratio)
145 | A28C C87G G117C A137U | ≤ -4.2
146 | A29C C35U G50C G58U U61G C96A U134A | ≤ -4.2
147 | A29U A49G C54G G59U A91U C96A G117U A142U | ≤ -4.2
148 | A29G C43U U45A A52C C75G A91U A115G U151G | ≤ -4.2
149 | A29G U55G C57G C87A A107G | ≤ -4.2
150 | A29C C54A G70U | ≤ -4.2
151 | A29G C76U G92A C123G G143U | ≤ -4.2
152 | A28G A107G U144C | ≤ -4.2
153 | A28G A37C U55A U90C A91G | ≤ -4.2
154 | A28G A29U C87G C96A | ≤ -4.2
155 | A29U A41U U53G G88U A89G G117A | ≤ -4.2
156 | A29C C95A G117U G126U G141C G143C | ≤ -4.2
157 | A28G A49G G50A C87G | ≤ -4.2
158 | A29G A60G G92C C116G A121G | ≤ -4.2
159 | A29C G58A C87G C93G G133A U145C | ≤ -4.2
160 | A29G G58C A73U G92C A98G C125A | ≤ -4.2
161 | A29G A89U C96U A115C A121C G143U | ≤ -4.2
162 | A29G A41C A60U C85G G86U C116G G133C A142G A150G | ≤ -4.2
163 | A28G U44A G83C A147G | ≤ -4.2
164 | A28G A40G G50A A52G G65U C96U | -3.77
165 | A28G U61G C95A A97U A107U | ≤ -4.2
166 | A29U A137G | ≤ -4.2
167 | A28C A29U A107U A115G | ≤ -4.2
